Measured values: patent US20240209092A1 (ADAGENE, published 2024)
Where a chain is given by its changes, count along the chain named.

T1: recombinant rat CTLA4 protein (extracellular domain) (rat, UniProt Q62859 36-161)
T1 sequence: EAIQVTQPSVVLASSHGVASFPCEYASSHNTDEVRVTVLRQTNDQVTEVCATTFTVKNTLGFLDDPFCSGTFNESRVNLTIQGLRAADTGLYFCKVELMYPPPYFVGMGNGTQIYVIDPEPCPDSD

T2: recombinant human CTLA4 protein (extracellular domain) (human, UniProt P16410 36-161)
T2 construct: extracellular domain
T2 sequence (looked up): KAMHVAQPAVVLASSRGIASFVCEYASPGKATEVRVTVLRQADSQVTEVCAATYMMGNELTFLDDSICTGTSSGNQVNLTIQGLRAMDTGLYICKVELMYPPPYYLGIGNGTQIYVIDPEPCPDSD

T3: recombinant cynomolgus monkey CTLA4 protein (extracellular domain) (cynomolgus monkey, UniProt G7PL88 36-161)
T3 sequence: T2 sequence (looked up) with S14N, I18T, L106M

T4: human CTLA4 expressed on cells (human, UniProt P16410 36-223)
T4 sequence (looked up): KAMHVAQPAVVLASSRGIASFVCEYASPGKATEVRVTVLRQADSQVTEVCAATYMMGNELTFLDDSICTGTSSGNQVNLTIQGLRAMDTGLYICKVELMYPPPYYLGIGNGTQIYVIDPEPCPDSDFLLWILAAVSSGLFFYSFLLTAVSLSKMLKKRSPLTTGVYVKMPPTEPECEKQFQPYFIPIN

B1: TY22404 (masked, masking peptide intact) (antibody)
heavy: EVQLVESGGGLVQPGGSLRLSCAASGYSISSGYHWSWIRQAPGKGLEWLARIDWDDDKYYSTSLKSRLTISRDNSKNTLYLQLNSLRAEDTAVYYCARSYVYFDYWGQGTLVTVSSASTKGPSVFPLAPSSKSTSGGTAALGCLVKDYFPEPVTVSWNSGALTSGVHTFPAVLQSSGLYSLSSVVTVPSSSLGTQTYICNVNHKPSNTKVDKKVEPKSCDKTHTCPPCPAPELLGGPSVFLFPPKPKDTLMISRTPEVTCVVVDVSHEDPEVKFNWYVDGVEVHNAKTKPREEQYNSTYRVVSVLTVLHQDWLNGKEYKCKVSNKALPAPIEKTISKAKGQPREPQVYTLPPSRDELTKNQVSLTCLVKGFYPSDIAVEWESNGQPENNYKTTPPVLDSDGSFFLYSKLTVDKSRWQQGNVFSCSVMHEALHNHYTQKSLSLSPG
light: EVGSYPNPSSDCVPYYYACAYSGRSAGGGGTPLGLAGSGGSDIQLTQSPSSLSASVGDRVTITCRASQSVRGRFLAWYQQKPGKAPKLLIYDASNRATGIPSRFSGSGSGTDFTLTISSLQPEDFATYYCQQSSSWPPTFGQGTKVEIKRTVAAPSVFIFPPSDEQLKSGTASVVCLLNNFYPREAKVQWKVDNALQSGNSQESVTEQDSKDSTYSLSSTLTLSKADYEKHKVYACEVTHQGLSSPVTKSFNRGEC
notes: It has the VH and VL of TY21580, with the mask/linker at the N-terminus of the light chain; also called masked TY22404; masking peptide-intact TY22404
B2: activated TY22404 by condition 2 (antibody)
heavy: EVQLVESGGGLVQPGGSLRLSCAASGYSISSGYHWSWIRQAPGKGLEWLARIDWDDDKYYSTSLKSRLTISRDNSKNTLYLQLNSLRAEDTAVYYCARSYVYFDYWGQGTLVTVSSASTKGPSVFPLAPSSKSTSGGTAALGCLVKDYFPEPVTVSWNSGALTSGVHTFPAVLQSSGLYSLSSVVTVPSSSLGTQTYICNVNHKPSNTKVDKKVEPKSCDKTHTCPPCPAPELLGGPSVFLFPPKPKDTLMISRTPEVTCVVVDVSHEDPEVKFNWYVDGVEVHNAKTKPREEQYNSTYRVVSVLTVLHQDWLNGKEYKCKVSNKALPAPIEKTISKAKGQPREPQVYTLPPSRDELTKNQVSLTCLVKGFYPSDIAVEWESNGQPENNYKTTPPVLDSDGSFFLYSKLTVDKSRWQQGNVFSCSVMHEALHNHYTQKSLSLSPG
light: DIQLTQSPSSLSASVGDRVTITCRASQSVRGRFLAWYQQKPGKAPKLLIYDASNRATGIPSRFSGSGSGTDFTLTISSLQPEDFATYYCQQSSSWPPTFGQGTKVEIKRTVAAPSVFIFPPSDEQLKSGTASVVCLLNNFYPREAKVQWKVDNALQSGNSQESVTEQDSKDSTYSLSSTLTLSKADYEKHKVYACEVTHQGLSSPVTKSFNRGEC
notes: IgG1; also called cleaved TY22404; not shown: remnant of the cleavable linker left after cleavage
B3: activated TY22404 by condition 1 (antibody)
heavy: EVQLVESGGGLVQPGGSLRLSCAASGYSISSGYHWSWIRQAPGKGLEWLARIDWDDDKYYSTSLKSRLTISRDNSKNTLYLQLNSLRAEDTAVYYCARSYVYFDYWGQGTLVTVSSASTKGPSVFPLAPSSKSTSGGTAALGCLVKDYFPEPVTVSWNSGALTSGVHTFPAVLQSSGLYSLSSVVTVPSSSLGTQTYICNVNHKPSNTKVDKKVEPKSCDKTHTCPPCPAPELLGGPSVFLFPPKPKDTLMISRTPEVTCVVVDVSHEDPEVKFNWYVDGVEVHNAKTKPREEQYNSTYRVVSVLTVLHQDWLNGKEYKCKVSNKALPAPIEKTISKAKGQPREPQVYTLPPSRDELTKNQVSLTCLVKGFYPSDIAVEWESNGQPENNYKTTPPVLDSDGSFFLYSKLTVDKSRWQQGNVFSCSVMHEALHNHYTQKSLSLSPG
light: B2 light
notes: as for B2

Assays:
[1] = target: T1, recombinant rat CTLA4 protein …; test: ELISA, recombinant rat CTLA4 extracellular domain coated on the plate, captured antibody detected with HRP-labeled anti-human IgG (Fab specific), absorbance at 450 nm
[2] = target: T2, recombinant human CTLA4 protein …; test: ELISA, recombinant human CTLA4 extracellular domain coated on the plate, captured antibody detected with HRP-labeled anti-human IgG (Fab specific), absorbance at 450 nm
[3] = target: T5, recombinant mouse CTLA4 protein (extracellular domain) (mouse, UniProt P09793 36-161); test: ELISA, recombinant mouse CTLA4 extracellular domain coated on the plate, captured antibody detected with HRP-labeled anti-human IgG (Fab specific), absorbance at 450 nm
T5 construct: extracellular domain

[4] = target: T3, recombinant cynomolgus monkey CTLA4 …; test: ELISA, recombinant cynomolgus monkey CTLA4 extracellular domain coated on the plate, captured antibody detected with HRP-labeled anti-human IgG (Fab specific), absorbance at 450 nm
[5] = target: T4, human CTLA4 expressed on cells; test: cell-based or functional assay
[6] = target: T2, recombinant human CTLA4 protein …; test: ELISA, CTLA4 extracellular domain coated; reference masked TY22404
[7] = target: T3, recombinant cynomolgus monkey CTLA4 …; test: as above
[8] = target: T5, recombinant mouse CTLA4 protein …; test: as above
[9] = target: T1, recombinant rat CTLA4 protein …; test: as above
[10] = target: T2, recombinant human CTLA4 protein …; test: ELISA, CTLA4 extracellular domain coated, HRP anti-human IgG (Fab specific) detection
[11] = target: T3, recombinant cynomolgus monkey CTLA4 …; test: as above
[12] = target: T5, recombinant mouse CTLA4 protein …; test: as above
[13] = target: T1, recombinant rat CTLA4 protein …; test: as above

Binder | EC50 (read off the curve) [1] [pM] | EC50 (read off the curve) [2] [pM] | EC50 (read off the curve) [3] [pM] | EC50 (read off the curve) [4] [pM] | EC50 (read off the curve) [5] [pM] | fold increased affinity compared to masked TY22404 [6] [fold] | fold increased affinity compared to masked TY22404 [7] [fold] | fold increased affinity compared to masked TY22404 [8] [fold] | fold increased affinity compared to masked TY22404 [9] [fold] | EC50 [10] [pM] | EC50 [11] [pM] | EC50 [12] [pM] | EC50 [13] [pM]
B1 | ~30000 | ~70000 | ~100000 | ~10000 |  |  |  |  |  |  |  |  | 
B2 | ~300 | ~300 | ~300 | ~300 | ~700 | > 250 | ~40 | > 300 | > 100 | ~300 | ~300 | ~300 | ~300
B3 | ~300 | ~300 | ~300 | ~300 |  | > 250 | ~40 | > 300 | > 100 | ~300 | ~300 | ~300 | ~300
